Laboratory results from article PMC12308385, “Structural and Functional Characteristics of Potent Dioxygenase from Moesziomyces aphidis” (JACS Au, 2025).
Each block holds one molecule with its values, some of them ahead of it.

How the values were obtained:
MapADO [1] = target: T1, MapADO (Moesziomyces aphidis, UniProt W3VHW6); test: inhibition of isoeugenol conversion; type: cell-based; details: equimolar to isoeugenol; enzyme preparation not stated in main text
T1 construct: gene PaG_05861
T1 sequence (W3VHW6 2-548): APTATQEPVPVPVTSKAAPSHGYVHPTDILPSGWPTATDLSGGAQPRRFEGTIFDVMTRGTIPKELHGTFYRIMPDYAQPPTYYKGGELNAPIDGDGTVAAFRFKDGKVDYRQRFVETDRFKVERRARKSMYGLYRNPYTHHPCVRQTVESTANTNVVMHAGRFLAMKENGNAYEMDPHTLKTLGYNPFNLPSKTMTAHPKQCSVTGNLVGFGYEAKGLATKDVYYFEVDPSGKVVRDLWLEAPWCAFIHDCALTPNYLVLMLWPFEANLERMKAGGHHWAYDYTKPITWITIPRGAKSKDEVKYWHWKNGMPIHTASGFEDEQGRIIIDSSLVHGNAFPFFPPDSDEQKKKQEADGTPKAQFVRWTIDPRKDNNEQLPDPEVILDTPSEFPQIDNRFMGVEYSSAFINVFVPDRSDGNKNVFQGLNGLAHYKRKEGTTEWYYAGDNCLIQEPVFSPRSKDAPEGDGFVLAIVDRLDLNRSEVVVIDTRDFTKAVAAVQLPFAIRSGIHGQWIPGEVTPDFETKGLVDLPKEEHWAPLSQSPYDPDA

MapADO [2] = target: T1, MapADO; test: X-ray crystal structure (cocrystallization); type: binding; details: 40-fold molar excess ligand; front pocket at Fe2+
MapADO [3] = target: T1, MapADO; test: inhibition of isoeugenol conversion; type: cell-based; details: equimolar to isoeugenol; enzyme preparation not stated in main text; suggested competitive
[4] = substrate: CC=Cc1ccc(O)c(OC)c1; test: spectrophotometric monitoring of vanillin formation; type: biochemical, Thermothelomyces thermophilus; details: co-substrate O2; Fe2+ enzyme
Text: spectrophotometric monitoring of vanillin formation on ADO (TtCCO)

[5] = substrate: CC=Cc1ccc(O)c(OC)c1; test: as above; type: biochemical, Moesziomyces aphidis; details: co-substrate O2; Fe2+ enzyme
Text: spectrophotometric monitoring of vanillin formation on MapADO

% reduction of 1a conversion (MapADO [1]): 60%
Molecule: COc1cc(C=O)ccc1O [compound 1, vanillin]
X-ray crystal structure (cocrystallization) (MapADO [2]): In the 1-bound structure (PDB ID: 9G89), interactions include hydrophobic contacts

% inhibition (MapADO [3]): 25%
Molecule: COc1cccc(C=O)c1O [compound 5, ortho-vanillin]

Molecule: O=Cc1ccc(O)cc1 [compound 3, 4-hydroxybenzaldehyde]
X-ray crystal structure (cocrystallization) (MapADO [2]): The 3-bound structure (PDB ID: 9G8A) shows similar hydrophobic interactions and hydrogen bonds

B1: ADO (TtCCO) (Thermothelomyces thermophilus ATCC 42464) (protein)
chain: MAHIHDLAPEVSNYSSGRLTPPTPVRFPRTPVFASMNKPCRFEGDVFDLEVSGAIPPDIDGTFFRVQPDHRFPPLFEDDIHFNGDGSVTAIRISGGHADLRQRYVRTERYLLETRARRSLFGRYRNPWTDNESVRGVIRTASNTNVVFWRGALLAMKEDGPPFAMDPVTLETLGRYDFEGQILSPTFTAHPKIDPDTGEMVCFAYEAGGDGSDCSVDVAVWTVDADGKKVEECWYKAPFAGMIHDCGITKNWVVLPLTPIKMDLERMKRGGNKFAWDPSEDQWYGVVPRRGAKSDDIIWFRADNGFHGHVAGCYELPSGEIVFDLTVADGNVFFFFPPDDNITPPADGVAKRNRLSSPTVRWIFDPKAKKSAIRTEAAGDADIWVADERVKPALTWPTNGEFSRIDDRYVTKPYRHFWQAVVDPTRPYDFEKCGPPAGGLFNCLGHYTWSDQNYHHGHNTGDPSGDGRSNGSAEEATAGKFGLQDVYFAGPTMTFQEPTFIPRQGAAEGEGYLIALLNHLDELRNDVVIFEARNLGKGPLAVIHLPLKLKLGLHGNWVDSREIEAWRRRRAENGDVGPLRVAKEPLPWQKKFAAAAQNGSNGV
notes: purified recombinant; construct details not given; genus given only as T
Km [4]: 2240 ± 264 µM
Vmax [4]: 43 µmol/min/mg
kcat [4]: 44 s⁻¹

B2: MapADO (Moesziomyces aphidis) (protein)
chain: APTATQEPVPVPVTSKAAPSHGYVHPTDILPSGWPTATDLSGGAQPRRFEGTIFDVMTRGTIPKELHGTFYRIMPDYAQPPTYYKGGELNAPIDGDGTVAAFRFKDGKVDYRQRFVETDRFKVERRARKSMYGLYRNPYTHHPCVRQTVESTANTNVVMHAGRFLAMKENGNAYEMDPHTLKTLGYNPFNLPSKTMTAHPKQCSVTGNLVGFGYEAKGLATKDVYYFEVDPSGKVVRDLWLEAPWCAFIHDCALTPNYLVLMLWPFEANLERMKAGGHHWAYDYTKPITWITIPRGAKSKDEVKYWHWKNGMPIHTASGFEDEQGRIIIDSSLVHGNAFPFFPPDSDEQKKKQEADGTPKAQFVRWTIDPRKDNNEQLPDPEVILDTPSEFPQIDNRFMGVEYSSAFINVFVPDRSDGNKNVFQGLNGLAHYKRKEGTTEWYYAGDNCLIQEPVFSPRSKDAPEGDGFVLAIVDRLDLNRSEVVVIDTRDFTKAVAAVQLPFAIRSGIHGQWIPGEVTPDFETKGLVDLPKEEHWAPLSQSPYDPDA
Km [5]: 118 ± 13 µM
Vmax [5]: 231 µmol/min/mg
kcat [5]: 238 s⁻¹
